Experimental data from patent US20100166747A1.

Assays:
[1] = molecular target: hu IGF-1R(ECD)-C3-muIgG1Fc (human; mouse); assay: ORIGEN competition on IGF-1R(ECD)-C3-muFc beads; competitor 1 nM Ru-IGF-1
[2] = molecular target: hu IGF-1R(ECD)-C3-muIgG1Fc (human; mouse); assay: ORIGEN competition on IGF-1R(ECD)-C3-muFc beads; competitor 2 nM Ru-IGF-2

Max (%) maximum level of inhibition at 1 µM antibody [1] [%] | Max (%) maximum level of inhibition at 1 µM antibody [2] [%] | Substance
91 | – | murine anti-IGF-1R antibody αIR3 (Calbiochem)
89 | 99 | murine anti-IGF-1R antibody 1H7 (Santa Cruz Biotechnology)
